Tests used:
[1] = target: T1, Prostate specific membrane antigen (PSMA) expressed on cell surface (human, UniProt Q04609 1-750); test: cell-based or functional assay
[2] = target: T1, Prostate specific membrane antigen …; test: cell ELISA on fixed C4-2 cells; 3-fold dilutions from 100 nM to 0.19 pM; detection with HRP anti-human IgG Fc, TMB
[3] = target: T1, Prostate specific membrane antigen …; test: cell ELISA on fixed C4-2 cells, 100 nM to 0.19 pM, HRP anti-human IgG Fc
[4] = target: T2, biotinylated recombinant extracellular domain of human PSMA (human, UniProt Q04609 44-750, biotinylated with EZ-Link Sulfo-NHS-Biotin (protein:biotin 1:20); residues not stated); test: capture ELISA: scFv (100 nM to 0.137 nM) captured on anti-Flag, 0.5 µg/ml biotinylated PSMA, streptavidin-HRP; GraphPad Prism
T2 construct: Bought from R&D systems; also called biotinylated PSMA; biotinylated PSMA protein
Description: (§1) Briefly, anti-Flag antibody (Sigma) was coated on ELISA plate at 4° C. overnight in PBS. […] Plate was then washed and incubated with biotinylated PSMA and the binding was detected with streptavidin-HRP, and analyzed by colorimetric development using TMB and then stop buffer. Absorbance at OD450 was measured and the affinity was calculated using GraphPad Prism software.
(§2) There is a Flag tag and a V5 tag at the N and C terminus of scFv, and thus antibodies to these tags were used to capture the scFv for ELISA assay. Briefly, anti-Flag antibody (Sigma) was coated on ELISA plate at 1 μg/ml, 50 μl/well at 4° C. overnight in PBS. […] Plate was washed 6 times with PBST and then incubated with 0.5 μg/ml biotinylated PSMA in PBS™ for 1 more hour at RT. After 6 washes, plate was incubated with 1:1000 diluted streptavidin-HRP (BD Bioscience) in PBS™ at RT for 30 min. Plate was washed again for 6 times and incubated with TMB for 20 min at RT, colorimertric reaction was stopped with stop buffer and the absorbance was read at OD450.

[5] = target: T3, PSMA (form not stated; as named in the summary sentence of paragraph 43) (UniProt Q04609 44-750, limits assumed); test: not stated (summary sentence in the description)
T3 construct: The summary sentence gives neither the assay nor the form of PSMA, so the value could not be assigned to m8, m9 or m10; also called prostate specific membrane antigen

[6] = target: T2, biotinylated recombinant extracellular …; test: capture ELISA: anti-Flag coated, gy1 scFv in 3-fold dilutions, 0.5 ug/ml biotinylated PSMA, streptavidin-HRP, TMB
Description: as §1, §2

[7] = target: T1, Prostate specific membrane antigen …; test: cell ELISA on fixed C4-2 cells, 8100 nM to 0.005 nM, HRP anti-6His; one-site binding hyperbola
Description: (§3) Briefly, C4-2 cultured in 96-well plate were fixed with 4% paraformaldehyde, blocked with 3% H₂O₂ and 6% bovine serum albumin sequentially. […] Cell binding was detected with HRP-conjugated mouse anti-6His and colorimetric signals were developed by TMB and stopped by STOP buffer.
(§4) The next day, cells were fixed with 4% paraformaldehyde for 20 min before being treated with 3% H₂O₂ for 20 minutes to block endogenous peroxidase followed by blocking with 6% bovine serum albumin for 30 min at room temperature. […] Cells were then washed with PBST and incubated with HRP-conjugated mouse anti-6His antibody (AbD Serotec, Bio-Rad, Oxford, UK) for 1h at room temperature. Colorimetric signals were developed by addition of 3, 3′, 5, 5′-tetramethylbenzidine (TMB, eBioscience, CA, USA) and stopped by incubation with 1 M […] for 15 minutes. The absorbance was measured at 450 nm using a Sunrise microplate reader (Tecan, Groedig, Austria) and the binding curves were analyzed using GraphPad Prism 5.0 software.

[8] = target: T1, Prostate specific membrane antigen …; test: cell ELISA on fixed C4-2 cells; 3-fold dilutions, 1 h, 37 °C; detection with HRP mouse anti-6His, TMB
Description: as §3, §4

T1 sequence (Q04609 whole entry): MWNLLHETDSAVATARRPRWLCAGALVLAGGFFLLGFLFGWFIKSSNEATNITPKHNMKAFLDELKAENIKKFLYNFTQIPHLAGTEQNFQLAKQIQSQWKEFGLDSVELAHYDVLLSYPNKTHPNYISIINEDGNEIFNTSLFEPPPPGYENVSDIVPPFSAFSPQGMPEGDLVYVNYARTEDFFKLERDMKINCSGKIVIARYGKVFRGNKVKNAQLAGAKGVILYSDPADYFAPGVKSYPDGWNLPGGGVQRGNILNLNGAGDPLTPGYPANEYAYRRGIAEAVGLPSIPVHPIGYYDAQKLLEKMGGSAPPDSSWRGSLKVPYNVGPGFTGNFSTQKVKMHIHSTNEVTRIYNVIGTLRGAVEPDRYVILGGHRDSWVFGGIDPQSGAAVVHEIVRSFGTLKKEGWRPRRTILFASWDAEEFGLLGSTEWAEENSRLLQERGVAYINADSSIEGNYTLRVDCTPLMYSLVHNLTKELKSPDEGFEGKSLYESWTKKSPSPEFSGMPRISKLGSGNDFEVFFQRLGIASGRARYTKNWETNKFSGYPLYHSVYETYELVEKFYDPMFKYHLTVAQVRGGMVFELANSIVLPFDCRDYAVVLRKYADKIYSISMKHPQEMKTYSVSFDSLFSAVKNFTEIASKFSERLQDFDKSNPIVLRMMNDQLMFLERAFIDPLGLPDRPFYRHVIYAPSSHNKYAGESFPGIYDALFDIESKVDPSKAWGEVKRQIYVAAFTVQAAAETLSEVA
T2 sequence (Q04609 44-750): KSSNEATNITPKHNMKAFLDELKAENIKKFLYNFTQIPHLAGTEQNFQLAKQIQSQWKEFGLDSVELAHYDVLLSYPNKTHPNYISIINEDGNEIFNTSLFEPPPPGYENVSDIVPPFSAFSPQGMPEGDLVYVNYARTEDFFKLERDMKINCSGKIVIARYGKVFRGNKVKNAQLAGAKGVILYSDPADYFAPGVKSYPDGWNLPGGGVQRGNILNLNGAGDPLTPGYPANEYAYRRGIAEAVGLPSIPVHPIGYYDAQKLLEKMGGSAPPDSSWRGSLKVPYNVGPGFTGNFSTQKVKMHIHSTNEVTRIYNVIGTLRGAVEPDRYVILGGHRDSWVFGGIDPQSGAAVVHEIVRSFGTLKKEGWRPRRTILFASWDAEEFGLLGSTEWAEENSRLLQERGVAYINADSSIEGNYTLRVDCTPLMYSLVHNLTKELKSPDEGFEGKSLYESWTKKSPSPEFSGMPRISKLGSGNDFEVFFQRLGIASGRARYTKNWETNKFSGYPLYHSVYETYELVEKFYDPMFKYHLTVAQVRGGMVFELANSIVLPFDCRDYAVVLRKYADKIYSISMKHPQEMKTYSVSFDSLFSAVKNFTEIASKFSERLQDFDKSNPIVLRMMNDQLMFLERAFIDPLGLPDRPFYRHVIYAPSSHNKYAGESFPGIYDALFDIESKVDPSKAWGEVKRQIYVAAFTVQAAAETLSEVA
T3 sequence (Q04609 44-750 limits assumed): as the sequence (Q04609 44-750) above

B1: PSMAb-DM1 (antibody, human IgG1, lambda, V domains shown)
VH: EVQLVESGGALAKPGGSLRLSCAASGFTLSGYAMHWVRQAPGKGLEWVAVISYDGSNKYYADSVKGRFTVSRDNSKNTLFLQMNSLRPEDTAVYYCAKGLTWGLGDNDALDIWGPGTTVTVSS
VL: QSVLTQPPSVSGAPGQSVIISCTGSSSNIGAGSHVHWYQQVPGTAPKLLIYENTNRPSGVPDRFSGSKSGTSGSLAITGLQPEDEADYYCATWDDSLNGVIFGGGTKATVLG
modifications: DM1 through SMCC linker, drug/Ab conjugation ratio 3.3 per antibody; conjugated residues and chain not stated
notes: also called PSMAb-ADC; PSMAb conjugate with DM1
With B1 as the binder, how does the “IC50 of cytotoxicity on C4-2 cells (alamarBlue, 4 days)” value (“IC50 of cytotoxicity on C4-2 cells” below) [1] read?
Its value is 0.12 nM.

B2: PSMAb-MMAF (antibody, human IgG1, lambda, V domains shown)
VH: B1 VH
VL: B1 VL
modifications: MC-vc-PAB-MMAF after partial reduction with TCEP, drug loading 3.03 per antibody; conjugated residues and chain not stated
notes: also called PSMAb-ADC; PSMAb conjugate with MMAF
How did the “IC50 of cytotoxicity on C4-2 cells” value [1] turn out when B2 was run?
Its value is 0.92 nM.

B3: PSMAb-MMAE (antibody, human IgG1, lambda, V domains shown)
VH: B1 VH
VL: B1 VL
modifications: MC-vc-PAB-MMAE after partial reduction with TCEP, drug loading 3.5 per antibody; conjugated residues and chain not stated
notes: also called PSMAb-ADC; PSMAb conjugate with MMAE
Which “IC50 of cytotoxicity on C4-2 cells” value [1] does the source give for B3 here?
Its value is 0.59 nM.

B4: PSMAb (full IgG1 antibody engineered from gy1-2 scFv) (antibody, V domains shown)
VH: B1 VH
VL: B1 VL
notes: IgG1 heavy constant region and lambda light constant region; expressed in CHO-S cells; also called PSMAb full antibody
B4 was tested. Which “EC50 (read off the curve)” value [2] did it give?
Its value is roughly 0.1 nM.

And the Kd [3]?
The Kd was 0.1 nM.

B5: gy1 scFv (secreted by yeast strain YVH10) (scFv)
scFv: QSVLTQPPSVSGAPGQSVIISCTGSSSNIGAGSHVHWYQQVPGTAPKLLIYGNTNRPSGVPDRFSGSKSGTSGSLAITGLQPEDEADYYCATWDDSLNGVIFGGGTKVTVLGGSSRSSSSGGGGSGGGGEVQLVESGGALAKPGGSLRLSCAASGSTLSGYAMHWVRQAPGKGLEWVAVISYDGSNKYYADSVKGRFTISRDNSKNTLFLQMNSLRPEDTAVYYCAKGLTWGLGDNDALDIWGPGTTVTVSS
notes: also called scFv gy1; anti-PSMA scFv gy1; not shown: Flag tag at the N terminus; V5 tag at the C terminus; 6xHis tag at the C terminus
For B5, which Kd [4] is on record?
Its Kd is 1.17 nM.

And the Kd [5]?
Its Kd is 0.9 nM.

What about the “EC50 (read off the curve)” value [6] of the same binder?
Its value is roughly 1 nM.

B6: E. coli expressed gy1 scFv (pET302-gy1, BL21) (scFv)
scFv: B5 scFv
notes: also called E. coli expressed scFv gy1; not shown: His tag (purified on HisTrp HP column, detected with anti-6His)
Which Kd [7] does the source give for B6 here?
Its Kd is 4.13 nM.

And the “EC50 (read off the curve)” value [8]?
Its value is roughly 300 nM.
